Publication PMC10747430, “^99mTc-Labeled Cyclic Peptide Targeting PD-L1 as a Novel Nuclear Imaging Probe” (Pharmaceutics, 2023)

How the values were obtained:
[1] = Reversed-phase radio-HPLC retention time (lipophilicity); type: physicochemical; details: µBondapak C18 3.9 mm × 30 cm, linear gradient 0.1% TFA-acetonitrile / 0.1% TFA-water in 20 min; used as measure of lipophilicity
Method: For quality control of the [^99mTc]Tc-iPD-L1 and [^99mTc]Tc-WL12 formulations, parameters such as appearance (clear solution), pH (neutral), sterility, absence of bacterial endotoxins, and radiochemical purity (radio-HPLC; Waters Corporation, Milford, CT, USA; 3.9 mm × 30 cm µBondapak™ C18 column; linear gradient system; solvent A: 0.1% TFA-acetonitrile and solvent B: 0.1% TFA-water, from 100 to 30% of A in 20 min) were evaluated according to the Mexican Pharmacopoeia, in its section on “General Methods of Analysis” (MGA). The retention time of [^99mTc]Tc-WL12 was 15.0 ± 0.3 min and 15.5 ± 0.2 min for [^99mTc]Tc-iPD-L1, while the retention times of ^99mTcO4^− and [^99mTc]Tc-EDDA/tricine were 3.5 ± 0.2 min and 4.5 ± 0.2 min, respectively.
The radiochemical purities of [^99mTc]Tc-iPD-L1 and [^99mTc]Tc-WL12 were 95.5 ± 1.5% without the need for additional purification, as determined by reversed-phase radio-HPLC (Figure 8). As expected, the retention time of [^99mTc]Tc-iPD-L1 was higher than that of [^99mTc]Tc-WL12, which is associated with their CLogP values of 6.38 and 5.78, respectively.
Figure 8 Radio-chromatogram of (a) [^99mTc]Tc-iPD-L1 and (b) [^99mTc]Tc-WL12. Reversed-phase column (C18, 3.9 × 300 mm, 10µm particle size).

Stability in human serum = type: in vitro ADME; details: human serum (diluted 5x), 37 °C, n = 3
Method: The stability of [^99mTc]Tc-iPD-L1 and [^99mTc]Tc-WL12 was evaluated by diluting the samples in human serum (5x). The radiopharmaceuticals (n = 3) were heated at 37 °C and analyzed at 0.5, 3, and 24 h for radiochemical purity by size-exclusion radio-HPLC (ProteinPak 300SW, Waters Corporation, Milford, CT, USA).
The radioactivity from [^99mTc]Tc-iPD-L1 bound to serum proteins was 1.3 ± 0.8% at 30 min, 3.2 ± 1.3% at 3 h, and 7.6 ± 1.9% at 24 h. High radiochemical stability (>90% at 24 h) was also observed. In the case of [^99mTc]Tc-WL12, protein binding was 1.0 ± 0.4% at 30 min, 3.3 ± 0.9% at 3 h, and 6.0 ± 1.3% at 24 h, with a radiochemical purity of >90% at 24 h. Therefore, there was no significant difference […] in protein binding and serum stability between the radiotracers.

[2] = system: HCC827 lung cancer tumors; assay: Biodistribution in mice bearing HCC827 tumors; type: in vivo, mouse; details: mean over 1, 3 and 24 h
Method: All animal procedures were performed following the Institutional Animal Care and Use Committee requirements under an approved protocol (No. 09-2018-2022) and the Ethical Regulations for the Handling of Laboratory Animals (NOM-062-ZOO-1999). Male Nu/Nu (CINVESTAV, I.PN., Mexico City, Mexico) mice, 6–8 weeks of age, were maintained in an aseptic barrier environment. Mice were inoculated by subcutaneous injection of 1 × 10^6 HCC827 cells/0.1 mL PBS into the upper back. Injection sites were monitored periodically for tumor progression. On day ten after tumor cell inoculation, animals were injected with 18.5 MBq (50 µL) of [^99mTc]Tc-iPD-L1 or 18.5 MBq (50 µL) of [^99mTc]Tc-WL12 by tail vein injection. The animals were sacrificed at 1, 3, and 24 h (n = 3). Kidneys, lungs, heart, liver, spleen, pancreas, small intestine, stomach, muscle, and blood and tumor samples were dissected. Radioactivity was determined in a sodium iodide detector. The results were stated as % injected dose/g.
After 24 h, the activity in tumors was 3.21 ± 0.45 %ID/g ([^99mTc]Tc-WL12) and 5.65 ± 0.98 %ID/g ([^99mTc]Tc-iPD-L1). […] This behavior is related to the higher lipophilicity of [^99mTc]Tc-iPD-L1 compared to [^99mTc]Tc-WL12.

**Q.** With `CCCC[C@H]1C(=O)N(C)[C@@H](CCCC)C(=O)N[C@@H](CCCNC(=O)c2ccc(NN)nc2)C(=O)N[C@H](C(=O)NCC(N)=O)CSCC(=O)N[C@@H](Cc2ccc(O)cc2)C(=O)N(C)[C@@H](C)C(=O)N[C@@H](CC(N)=O)C(=O)N2CCC[C@H]2C(=O)N[C@@H](Cc2c[nH]cn2)C(=O)N[C@@H](CC(C)C)C(=O)N2C[C@H](O)C[C@H]2C(=O)N[C@@H](Cc2c[nH]c3ccccc23)C(=O)N[C@@H](CO)C(=O)N[C@@H](Cc2cn(C)c3ccccc23)C(=O)N1C` [[^99mTc]Tc-WL12, metal not drawn] as the compound, how does the “retention time, reversed-phase radio-HPLC” value [1] read?
**A.** 15.0 ± 0.3 min

**Q.** And the “stability in human serum” value (Stability in human serum; 30 min, 3 h and 24 h, size-exclusion radio-HPLC)?
**A.** remained stable

**Q.** And the remaining at 24 h (Stability in human serum; 24 h, size-exclusion radio-HPLC (ProteinPak 300SW), read-out: radiochemical stability / radiochemical purity in human serum at 24 h)?
**A.** > 90%

**Q.** What about the “mean percentage of tumor uptake over time (two-way ANOVA)” value [2] of the same compound?
**A.** 6.617
